B1: MIF4G domain-containing protein (Homo sapiens), A9UHW6 (parent)
chain: MGEPSREEYKIQSFDAETQQLLKTALKDPGAVDLEKVANVIVDHSLQDCVFSKEAGRMCYAIIQAESKQAGQSVFRRGLLNRLQQEYQAREQLRARSLQGWVCYVTFICNIFDYLRVNNMPMMALVNPVYDCLFRLAQPDSLSKEEEVDCLVLQLHRVGEQLEKMNGQRMDELFVLIRDGFLLPTGLSSLAQLLLLEIIEFRAAGWKTTPAAHKYYYSEVSD
partner: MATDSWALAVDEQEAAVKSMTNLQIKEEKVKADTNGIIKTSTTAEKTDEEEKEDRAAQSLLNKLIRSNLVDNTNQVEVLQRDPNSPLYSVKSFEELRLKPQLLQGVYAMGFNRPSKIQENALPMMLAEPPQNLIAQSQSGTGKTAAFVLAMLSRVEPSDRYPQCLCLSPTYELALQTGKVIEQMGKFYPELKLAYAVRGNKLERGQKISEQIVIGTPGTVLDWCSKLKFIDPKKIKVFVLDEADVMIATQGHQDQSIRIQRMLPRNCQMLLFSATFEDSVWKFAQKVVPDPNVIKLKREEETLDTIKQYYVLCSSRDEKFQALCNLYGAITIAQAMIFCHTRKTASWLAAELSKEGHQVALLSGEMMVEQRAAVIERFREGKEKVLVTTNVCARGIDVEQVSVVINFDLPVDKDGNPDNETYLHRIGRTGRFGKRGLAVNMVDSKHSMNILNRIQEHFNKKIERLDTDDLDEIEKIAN
B2: DNA endonuclease RBBP8 (Homo sapiens), Q99708 (parent)
chain: MNISGSSCGSPNSADTSSDFKDLWTKLKECHDREVQGLQVKVTKLKQERILDAQRLEEFFTKNQQLREQQKVLHETIKVLEDRLRAGLCDRCAVTEEHMRKKQQEFENIRQQNLKLITELMNERNTLQEENKKLSEQLQQKIENDQQHQAAELECEEDVIPDSPITAFSFSGVNRLRRKENPHVRYIEQTHTKLEHSVCANEMRKVSKSSTHPQHNPNENEILVADTYDQSQSPMAKAHGTSSYTPDKSSFNLATVVAETLGLGVQEESETQGPMSPLGDELYHCLEGNHKKQPFEESTRNTEDSLRFSDSTSKTPPQEELPTRVSSPVFGATSSIKSGLDLNTSLSPSLLQPGKKKHLKTLPFSNTCISRLEKTRSKSEDSALFTHHSLGSEVNKIIIQSSNKQILINKNISESLGEQNRTEYGKDSNTDKHLEPLKSLGGRTSKRKKTEEESEHEVSCPQASFDKENAFPFPMDNQFSMNGDCVMDKPLDLSDRFSAIQRQEKSQGSETSKNKFRQVTLYEALKTIPKGFSSSRKASDGNCTLPKDSPGEPCSQECIILQPLNKCSPDNKPSLQIKEENAVFKIPLRPRESLETENVLDDIKSAGSHEPIKIQTRSDHGGCELASVLQLNPCRTGKIKSLQNNQDVSFENIQWSIDPGADLSQYKMDVTVIDTKDGSQSKLGGETVDMDCTLVSETVLLKMKKQEQKGEKSSNEERKMNDSLEDMFDRTTHEEYESCLADSFSQAADEEEELSTATKKLHTHGDKQDKVKQKAFVEPYFKGDERETSLQNFPHIEVVRKKEERRKLLGHTCKECEIYYADMPAEEREKKLASCSRHRFRYIPPNTPENFWEVGFPSTQTCMERGYIKEDLDPCPRPKRRQPYNAIFSPKGKEQKT
B3: Keratin, type II cytoskeletal 2 epidermal (Homo sapiens), P35908 (parent)
chain: MSCQISCKSRGRGGGGGGFRGFSSGSAVVSGGSRRSTSSFSCLSRHGGGGGGFGGGGFGSRSLVGLGGTKSISISVAGGGGGFGAAGGFGGRGGGFGGGSSFGGGSGFSGGGFGGGGFGGGRFGGFGGPGGVGGLGGPGGFGPGGYPGGIHEVSVNQSLLQPLNVKVDPEIQNVKAQEREQIKTLNNKFASFIDKVRFLEQQNQVLQTKWELLQQMNVGTRPINLEPIFQGYIDSLKRYLDGLTAERTSQNSELNNMQDLVEDYKKKYEDEINKRTAAENDFVTLKKDVDNAYMIKVELQSKVDLLNQEIEFLKVLYDAEISQIHQSVTDTNVILSMDNSRNLDLDSIIAEVKAQYEEIAQRSKEEAEALYHSKYEELQVTVGRHGDSLKEIKIEISELNRVIQRLQGEIAHVKKQCKNVQDAIADAEQRGEHALKDARNKLNDLEEALQQAKEDLARLLRDYQELMNVKLALDVEIATYRKLLEGEECRMSGDLSSNVTVSVTSSTISSNVASKAAFGGSGGRGSSSGGGYSSGSSSYGSGGRQSGSRGGSGGGGSISGGGYGSGGGSGGRYGSGGGSKGGSISGGGYGSGGGKHSSGGGSRGGSSSGGGYGSGGGGSSSVKGSSGEAFGSSVTFSFR
partner: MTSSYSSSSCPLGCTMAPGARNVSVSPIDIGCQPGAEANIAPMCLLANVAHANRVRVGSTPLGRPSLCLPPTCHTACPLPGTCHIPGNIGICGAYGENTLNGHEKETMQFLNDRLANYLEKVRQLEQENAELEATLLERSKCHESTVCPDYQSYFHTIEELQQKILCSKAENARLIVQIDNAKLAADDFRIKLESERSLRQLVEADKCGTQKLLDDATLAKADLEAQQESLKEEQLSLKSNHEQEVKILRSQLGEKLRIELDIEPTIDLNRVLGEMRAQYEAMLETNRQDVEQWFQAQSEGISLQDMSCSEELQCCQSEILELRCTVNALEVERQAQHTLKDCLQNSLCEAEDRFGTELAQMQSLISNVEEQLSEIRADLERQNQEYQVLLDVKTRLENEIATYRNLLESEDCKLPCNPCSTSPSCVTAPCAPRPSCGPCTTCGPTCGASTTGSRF
B4: Tuftelin-interacting protein 11 (Homo sapiens), Q9UBB9 (parent)
chain: MSLSHLYRDGEGRIDDDDDERENFEITDWDLQNEFNPNRQRHWQTKEEATYGVWAERDSDDERPSFGGKRARDYSAPVNFISAGLKKGAAEEAELEDSDDEEKPVKQDDFPKDFGPRKLKTGGNFKPSQKGFAGGTKSFMDFGSWERHTKGIGQKLLQKMGYVPGRGLGKNAQGIINPIEAKQRKGKGAVGAYGSERTTQSMQDFPVVDSEEEAEEEFQKELSQWRKDPSGSKKKPKYSYKTVEELKAKGRISKKLTAPQKELSQVKVIDMTGREQKVYYSYSQISHKHNVPDDGLPLQSQQLPQSGKEAKAPGFALPELEHNLQLLIDLTEQEIIQNDRQLQYERDMVVNLFHELEKMTEVLDHEERVISNLSKVLEMVEECERRMQPDCSNPLTLDECARIFETLQDKYYEEYRMSDRVDLAVAIVYPLMKEYFKEWDPLKDCTYGTEIISKWKSLLENDQLLSHGGQDLSADAFHRLIWEVWMPFVRNIVTQWQPRNCDPMVDFLDSWVHIIPVWILDNILDQLIFPKLQKEVENWNPLTDTVPIHSWIHPWLPLMQARLEPLYSPIRSKLSSALQKWHPSDSSAKLILQPWKDVFTPGSWEAFMVKNIVPKLGMCLGELVINPHQQHMDAFYWVIDWEGMISVSSLVGLLEKHFFPKWLQVLCSWLSNSPNYEEITKWYLGWKSMFSDQVLAHPSVKDKFNEALDIMNRAVSSNVGAYMQPGARENIAYLTHTERRKDFQYEAMQERREAENMAQRGIGVAASSVPMNFKDLIETKAEEHNIVFMPVIGKRHEGKQLYTFGRIVIYIDRGVVFVQGEKTWVPTSLQSLIDMAK
partner: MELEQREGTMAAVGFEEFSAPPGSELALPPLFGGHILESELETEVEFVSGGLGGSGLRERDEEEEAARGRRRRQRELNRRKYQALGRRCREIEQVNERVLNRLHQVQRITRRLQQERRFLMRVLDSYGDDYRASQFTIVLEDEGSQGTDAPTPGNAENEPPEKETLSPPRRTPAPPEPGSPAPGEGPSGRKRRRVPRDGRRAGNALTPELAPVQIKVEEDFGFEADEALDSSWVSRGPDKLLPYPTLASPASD
B5: Notch homolog 2 N-terminal-like protein A (Homo sapiens), Q7Z3S9 (parent)
chain: MCVTYHNGTGYCKCPEGFLGEYCQHRDPCEKNRCQNGGTCVAQAMLGKATCRCASGFTGEDCQYSTSHPCFVSRPCLNGGTCHMLSRDTYECTCQVGFTGKECQWTDACLSHPCANGSTCTTVANQFSCKCLTGFTGQKCETDVNECDIPGHCQHGGTCLNLPGSYQCQCLQGFTGQYCDSLYVPCAPSPCVNGGTCRQTGDFTFECNCLPETVRRGTELWERDREVWNGKEHDEN
partner: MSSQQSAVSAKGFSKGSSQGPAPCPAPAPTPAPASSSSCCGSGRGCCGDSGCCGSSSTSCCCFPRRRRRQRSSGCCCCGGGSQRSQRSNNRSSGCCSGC

Variants of: B1
Settings: with dd19a_human DDX19A

Row | Variant | effect of a mutation on the interaction
1 | E160K | with no effect

Variants of: B2
Settings: with lims1_human LIMS1, P48059
lims1_human LIMS1, P48059, sequence (P48059 whole entry): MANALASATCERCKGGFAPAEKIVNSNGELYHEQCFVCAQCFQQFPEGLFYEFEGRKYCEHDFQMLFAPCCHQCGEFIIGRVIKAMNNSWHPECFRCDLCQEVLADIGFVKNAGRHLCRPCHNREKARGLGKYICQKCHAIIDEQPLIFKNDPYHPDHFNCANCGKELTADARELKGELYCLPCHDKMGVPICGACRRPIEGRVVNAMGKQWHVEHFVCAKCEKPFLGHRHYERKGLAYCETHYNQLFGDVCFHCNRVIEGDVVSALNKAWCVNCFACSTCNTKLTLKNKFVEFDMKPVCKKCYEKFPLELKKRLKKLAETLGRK

Row | Variant | effect of a mutation on the interaction
2 | E320K | with no effect

Variants of: B3
Settings: with krt38_human KRT38, O76015

Row | Variant | effect of a mutation on the interaction
3 | A517G | with no effect

Variants of: B4
Settings: with tfpt_human TFPT

Row | Variant | effect of a mutation on the interaction
4 | R8Q | with no effect
5 | S688L | with no effect

Variants of: B5
Settings: with crct1_human CRCT1, Q9UGL9

Row | Variant | effect of a mutation on the interaction
6 | R74Q | with no effect

From IntAct's records for PubMed 31515488
